Reference: paper PMC7617732 (2024)

Columns and labels:
Assay in all cases: SPR
m6 = molecular target: m6
m7 = molecular target: m7
3FTx-L8 = molecular target: 3FTx-L8
[1] = molecular target: T1, 3FTx-L2 (recombinant long-chain three-finger α-neurotoxin variant)
T1 chain: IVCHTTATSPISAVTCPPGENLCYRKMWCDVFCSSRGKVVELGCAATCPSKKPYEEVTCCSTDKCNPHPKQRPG

[2] = molecular target: T2, 3FTx-L15 (recombinant long-chain three-finger α-neurotoxin variant)
T2 chain: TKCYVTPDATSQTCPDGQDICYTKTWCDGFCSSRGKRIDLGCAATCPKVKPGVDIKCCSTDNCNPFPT

B1: 95Mat5 (human IgG) (antibody, V domains shown)
VH: QVQLVQSGAEVKKPGSSVKVSCKASGGTFSSYAISWVRQAPGQGLEWMGGYIPIFGTANYAQKFQGRVTITADESTSTAYMELSSLRSEDTAVYYCARIPLRWYESGPYESGVFDYWGQGTLVTVSS
VL: not shown
m6
  Kd: 0.11 nM
m7
  Kd: 0.24 nM
3FTx-L8
  Kd: < 0.01 nM
[1]
  Kd: 0.72 nM
[2]
  Kd: 0.61 nM
